From the RNAGym collection of RNA variant scans (doi:10.7554/elife.80360) come the findings set out here.

First the molecules themselves.
B1: HDV Ribozyme (parent)
chain: GGCCGGCAUGGUCCCAGCCUCCUCGCUGGCGCCGGCUGGGCAACAUUCCGAGGGGACCGUCCCCUCGGUAAUGGCGAAUGGGACCCA

In this data set the parent is B1. The data set can be described thus: self-cleavage, relative activity (ratio to wild type); higher = more cleavage; co-transcriptional.
As to GGCCGGCAUGGUCCCAGCCUCCUCGCUUGCGCCGGCUGGGCAACGUUCCGAGGGGACCGUCCCCUCGGUAAUGGCGAAUGGGACCCA [G28U A45G], the self-cleavage came out at 0.208.
For GGCCGGCAUGGUCCCAGCCUCCUCGCUGGCGCCGGCUGGGCAACAUUCCGAGGGGACCGUCCCCUCGGUAAUGGCGAAUCGGACCGA [G80C C86G] the value was 0.192.
Then GGCCGGCAGGGUCCCAGCCUCCACGCUGGCGCCGGCUGGGCAACAUUCCGAGGGGACCGUCCCCUCGGUAAUGGCGAAUGGGACCCA [U9G U23A], with 0.782.
Then GGCCGGCAUGGUCCCAGCCUCCUCGCUGGUGCCGGAUGGGCAACAUUCCGAGGGGACCGUCCCCUCGGUAAUGGCGAAUGGGACCCA [C30U C36A], with 0.193; and GGCCGGCAUGGUCCCAGCCUUCUCGCUGGCGCCGGCUGGGCAACAUUCCGAGGGGACCGUCCCCUCGGUAAUGGGGAAUGGGACCCA [C21U C75G], with 0.151.
For the variant GGCCGGCCUGGCCCCAGCCUCCUCGCUGGCGCCGGCUGGGCAACAUUCCGAGGGGACCGUCCCCUCGGUAAUGGCGAAUGGGACCCA [A8C U12C], the self-cleavage came out at 0.208.
For GGCCGGCAUGGUCCCAGCCGCCUCGCUGGCGCCGGCUGGGCAACAUUCCGAGGGGCCCGUCCCCUCGGUAAUGGCGAAUGGGACCCA [U20G A56C] the value was 0.196.
For GGCCGUCAUGGACCCAGCCUCCUCGCUGGCGCCGGCUGGGCAACAUUCCGAGGGGACCGUCCCCUCGGUAAUGGCGAAUGGGACCCA [G6U U12A] the value was 0.
As for GGCCGGCAUGGUCCCAGCCUCCUCGCUGGGGCCGUCUGGGCAACAUUCCGAGGGGACCGUCCCCUCGGUAAUGGCGAAUGGGACCCA [C30G G35U], the self-cleavage was found to be 0.138.
Then GGCCGGCAUGGUCCCAGCCUCCUCGCUGGCGCCGGCUGGGCAUCAUUCCGAGGGGACCGUCCCAUCGGUAAUGGCGAAUGGGACCCA [A43U C64A], with 0.397; and GGCCGGCAUGGUCCAAGCCUCCUCGCUGGCGCCGGCUGGGCAACAUUCCGAGGGGACCCUCCCCUCGGUAAUGGCGAAUGGGACCCA [C15A G59C], with 0.723.
For GGCCGGCAUGGUCCCAGCCUCCUCGCUGGCGCCGGCUGGGCAACAUUCCGAGGGGACCGUCCCCCCGGUAAUGGUGAAUGGGACCCA [U65C C75U] the value was 0.185; for GGCCUGCAUGGUCCCAGCCUCCUCGCUGGCGCCGGCUGGGCAACAUUCCGAGGGGACCGUCCCCUCGGUUAUGGCGAAUGGGACCCA [G5U A70U], 0.222; for GGCCGGCAUGGUCCUAGCCUCCUCGCUGGUGCCGGCUGGGCAACAUUCCGAGGGGACCGUCCCCUCGGUAAUGGCGAAUGGGACCCA [C15U C30U], 0.554.
Then GGCCGGCAUGGUCCCAGCCGCCUCGCUGGCGCCGGCUGGGCAACAUUCCGAGGGGACCGUCCCCUUGGUAAUGGCGAAUGGGACCCA [U20G C66U], with 0.148; and GGCCGGCAUGGUCCCAGCCUCCUCGCUGGCGCGGGCUGGGCAACAUUCCGAGGGGAACGUCCCCUCGGUAAUGGCGAAUGGGACCCA [C33G C57A], with 0.147; and GGCCGGCAUGGUCCCAGCCUCCUCGCUGGCGCCGGCUGGGCAACAUUCCGAGGGGACCGUCCCCUCAGUAAGGGCGAAUGGGACCCA [G67A U72G], with 0.383.
Regarding GGCCGGCAUGGUCCCAGCCUCCUCGCUGGCGCCGGCUGGGCAACAUUCCGAGGGGACCGUCCCCGCGGUAAUCGCGAAUGGGACCCA [U65G G73C], the self-cleavage amounted to 0.289.
For GGCCGGCAUGGUCCCAGCCUCCUCGCUGGCGCCGACUGGGCAACAUUCCGAGGGGACCGUCCUCUCGGUAAUGGCGAAUGGGACCCA [G35A C63U] the value was 0.91.
Then GGCUGGCAUGGUCCCAACCUCCUCGCUGGCGCCGGCUGGGCAACAUUCCGAGGGGACCGUCCCCUCGGUAAUGGCGAAUGGGACCCA [C4U G17A], with 0.332; and AGCCGGCAUGGUCCCAGCCUCCUCGCUGGCGCCGGCUGGGCAACAUUCCGAGGGGACCGUCCCCUCGGUAAUGGCGAAUGGGAGCCA [G1A C84G], with 0.0978.
Then GGCCGGCAUGGUCCCAGCCUCUUCGCUGGCGCCGGCUGGGCAACAUUCCGAGGGGACCGUCGCCUCGGUAAUGGCGAAUGGGACCCA [C22U C62G], with 0.431; and GGCCGGCAUGGUCCCAGCCUCCUCGCUGGCGUCGGCUGGGCAACAUUCCGAGGGGACCGUCCCCUCGAUAAUGGCGAAUGGGACCCA [C32U G68A], with 0.888.
Take GGCCGGCAUGGUCCCAGCCUCCUCGCUGGCGCCGGCUGGGCAACAUCCCGAGGGGACCGGCCCCUCGGUAAUGGCGAAUGGGACCCA [U47C U60G]: the self-cleavage came to 0.935.
For GGCCGGAAUGGUCCCAGCCUCCUCGCUGGCGCCGGCUGGGCAACAUUCCGAGGGGACCGUCCCCUCGGUAAUGGCGAAUGGUACCCA [C7A G82U], the self-cleavage is 0.256.
Then GGCCGGCAUGGUACCAGCCUCCUCGCUGACGCCGGCUGGGCAACAUUCCGAGGGGACCGUCCCCUCGGUAAUGGCGAAUGGGACCCA [C13A G29A], with 0.0268; and GUCCGGCAUGGUCCCAGCCUCCUCGCUGGCGCCGGCUGGGCAACAUUCCGAGGGGACCGUCCCCUCGGUAAUGGCGAAUGGGGCCCA [G2U A83G], with 0.0815; and GGCCGGCAUGGUCCCAGCGUCCUCGCUGGCGCCGGCUGGGCAACAUUCCGAGGGGACCGUCCCCUCGGUAAUGGCGAAUGCGACCCA [C19G G81C], with 0.0462.
For GGCCGGCAUGGUACCAGCCUCCUCGCUGGCGCCGGCUGGGCAACAUUCCGAGGAGACCGUCCCCUCGGUAAUGGCGAAUGGGACCCA [C13A G54A] the value was 0.117; for GGCCGGCAUGGUCCCAGCCUCUUCGGUGGCGCCGGCUGGGCAACAUUCCGAGGGGACCGUCCCCUCGGUAAUGGCGAAUGGGACCCA [C22U C26G], 0.492.
Then GGCCGGCAUGGUCCCAGCGUCCUCGCUGGCGCCGGCUGGGCAACAUUCCGAGGGGACCGUGCCCUCGGUAAUGGCGAAUGGGACCCA [C19G C61G], with 0.0378.
Turning to GGCCGGCAUGGUCCCAGCCUCCUCGCUGGGGCCGGCUCGGCAACAUUCCGAGGGGACCGUCCCCUCGGUAAUGGCGAAUGGGACCCA [C30G G38C], the self-cleavage turned out to be 0.0594.
